Laboratory results as given in the supplement of paper PMC12764529.
± gives the half width of the 95% confidence interval.

How the values were obtained:
[1] = folding stability dG unfold (combined trypsin and chymotrypsin); higher = more stable
In short: (§1)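 Unfolding free energy was derived, per protease or combined, against a sequence-predicted unfolded-state K50 and a shared folded-state K50, starting from K50 inferred by Bayesian fitting of sequencing counts. Digestion with trypsin and chymotrypsin was carried out on designed mini-proteins under 80 residues without cysteine in a PA-tagged cDNA display construct. Only designs with AlphaFold2 dimer inter-PAE above 15 were kept.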

[2] = folding stability dG unfold from trypsin proteolysis; higher = more stable
In short: as §1

[3] = folding stability dG unfold from chymotrypsin proteolysis; higher = more stable
In short: as §1

Sequence | folding stability dG unfold [1] [kcal/mol] | folding stability dG unfold [2] [kcal/mol] | folding stability dG unfold [3] [kcal/mol]
SAGFLGFGIEPHPNGWFKIEIMVMFPWPGGWFMFSIDITIPIVPIEPPPPPPVVEPKKENGKPKEWKYDSAG [r5_169_TrROS] | 2.74 ± 0.51 | 1.91 ± 0.13 | 3.38 ± 0.25
SAGFSITVDYEPEKGLWTVTFTSPPSTSPLSPEEVKETAREIAEKQGIKYELIEISREGNTWTMTIKVLSAG [r14_556_JUSTAS] | 5.39 ± 0.13 | 4.25 ± 0.18 | 5.48 ± 0.082
SAGFTLKLEFPDSTVDVKVTKVDPKNNIIYAEALLPGGEKLTLTYNPETGEIEIEKKKLERTPDGGLEESAG [r14_466_JUSTAS] | 1.13 ± 0.16 | 0.279 ± 0.14 | 1.51 ± 0.14
SAGFVMIKIELENPGNGKERELSIIIPYKSQEDARHIAEEIARELAKNGWKIKKIEVMVMPIPPPPDDPSAG [r5_660_TrROS] | 5.1 ± 0.24 | 3.95 ± 0.12 | 5.29 ± 0.16
SAGGAEQAREILKEWGFEISEVDPKKKTVQVTPPESGMPISIDVDEPGQIKIKIRMNGKPRTFEIPPSAGGS [r16_197_TrROS] | -0.215 ± 0.22 | -0.329 ± 0.24 | -0.634 ± 0.87
SAGGALANLSPEEIAALLESQGYEVTILEVEEKPGERIVKIRVTVKREDGTVESVEEIELTLPAPDKLSAGG [r13_566_JUSTAS] | 2.83 ± 0.095 | 3.7 ± 0.11 | 2.05 ± 0.03
SAGGALILLFPHPESRTVTALFVHPDGGSETIPFPVPESIDSLEEVADRLLREARERFPVPVEVVVASAGGS [r8_166_TrMRF] | 1.2 ± 0.038 | 0.944 ± 0.012 | 1.37 ± 0.033
SAGGAPSSFSTSSDPDGTQLLVVTEPGSGKPRTVRIPPGLNEAVTIPPSRSVSSVELVRVSPASPALLSAGG [r13_122_JUSTAS] | -0.803 ± 0.14 | -1.16 ± 0.46 | -0.734 ± 0.18
SAGGAPSTFTSTSPEGETTVTTTTTYYPETGTTTTTTTTTNPATGTSTTTTTTTPVAPPQPPLLEAGASAGG [r13_694_JUSTAS] | 1.05 ± 0.067 | 0.827 ± 0.056 | 1.08 ± 0.047
SAGGAPVPVSVTVEIFKRPDGYIIKVNIPSGETKTFSSLEELEKFLKENPSLKITKRTTVPIEKYYESSAGG [r13_730_JUSTAS] | 2.67 ± 0.071 | 1.94 ± 0.047 | 2.83 ± 0.021
SAGGARREIVIEIEADTLEEALAAAREALAALEDPEDLTVTIVVRLPPPPPPPRPRRVRLDGEEVELRSAGG [r13_718_TrROS_Hall] | 1.01 ± 0.22 | -0.384 ± 0.75 | 1.32 ± 0.19
SAGGATIEIKELGRDEDTWYFLVTDPGSAEAVKDFIEKFIPPDYDAKIKILSVDPETGKVTALIEIPGSAGG [r13_491_TrMRF] | 2.64 ± 0.15 | 2.23 ± 0.11 | 2.69 ± 0.14
SAGGATLTEPETTVEVRFEKLPDGTVIRTTTTITPEGVTTTTEPVPVPPSPGASSEEELEALRAAAAAASAG [r5_272_JUSTAS] | 1.6 ± 0.18 | 1.75 ± 0.037 | 1.51 ± 0.037
SAGGATRIRVLATNASGEKVELDIPQAIADAIAEALKQGKPIPPGPASVIAAFATSNGYDFEIVDISSAGGS [r8_159_TrMRF] | 2.85 ± 0.093 | 2.02 ± 0.062 | 3.106 ± 0.031
SAGGAVEITDISSKTVTEPVTFENGTVVPQERTAGTVTTTENGTPVATVPFTSEEELEEAIARALAESAGGS [r8_21_JUSTAS] | 0.869 ± 0.1 | -0.276 ± 0.22 | 1.24 ± 0.034
SAGGAVEKNSNNPNTSPEKAKEIAEEIAEELKKEGHVPKSISFSEKENGKLTATIKIEDGKELTIGLSAGGS [r8_485_JUSTAS] | < -1 | -0.343 ± 0.16 | -0.467 ± 0.17
SAGGAVYRNPATGEWYEPGMTEEEREARARAALPPPTVTITVTVTVVFEDNGTTVTATATVTLTVEGSAGGS [r16_387_TrROS_Hall] | 3.44 ± 0.1 | 2.97 ± 0.11 | 3.83 ± 0.12
